Substitutions are numbered along the chain they refer to.
B1: CD40L-385 (antibody, V domains shown)
VH: EVQLLESGGGLVQPGGSLRLSCAASGFTFSNYAMSWVRQAPGKGLEWVSAITGSGSTTYYADSVKGRFTISRDNSKNTLYLQMNSLRAEDTAVYYCARAHDYDSMLMDYWGQGTLVTVSS
VL: DIQMTQSPSSLSASVGDRVTITCRASQSIKSYLNWYQQKPGKAPKLLIYSASSLLSGVPSRFSGSGSGTDFTLTISSLQPEDFATYYCQQSYTLPRTFGGGTKVEIK
B2: CD40L-417 (antibody, V domains shown)
VH: EVQLLESGGGLVQPGGSLRLSCAASGFTFSKYAMNWVRQAPGKGLEWVSAISGSGESTYYADSVKGRFTISRDNSKNTLYLQMNSLRAEDTAVYYCARHGGYYYYYMDVWGQGTLVTVSS
VL: B1 VL with A25G, K30S, Y32F, S50A, S53K, L55H, Q90H, T93S, L94T, R96L
B3: CD40L-421 (antibody, V domains shown)
VH: EVQLLESGGGLVQPGGSLRLSCAASGFTFSKYAMNWVRQAPGKGLEWVSAISGSGESTYYADSVKGRFTISRDNSKNTLYLQMNSLRAEDTAVYYCATDYGDYDRLNFDLWGQGTLVTVSS
VL: B1 VL with A25G, K30S, Y32F, S50A, S53K, L55H, Q90H, T93S, L94T, R96L
B4: CD40L-392 (antibody, V domains shown)
VH: EVQLLESGGGLVQPGGSLRLSCAASGFTFSSFDMTWVRQAPGKGLEWVSGISGSGGTTFYADSVKGRFTISRDNSKNTLYLQMNSLRAEDTAVYYCVRDVSDIYGYLDDAFDIWGQGTLVTVSS
VL: B1 VL with S28D, K30R, S31N, S50A, A51T, L55Q, S56T, T93G, L94A, R96L
B5: CD40L-401 (antibody, V domains shown)
VH: EVQLLESGGGLVQPGGSLRLSCAASGFTFGNYAMTWVRQAPGKGLEWVSAISGLGGSTYYADSVKGRFTISRDNSKNTLYLQMNSLRAEDTAVYYCTSSDPTYYYDSNGKSSLGMDVWGQGTLVTVSS
VL: B1 VL with A25G, K30S, Y32F, S50A, S53K, L55H, Q90H, T93S, L94T, R96L
B6: CD40L-410 (antibody, V domains shown)
VH: EVQLLESGGGLVQPGGSLRLSCAASGFTFRTYAMGWVRQAPGKGLEWVSAISGSGGIAYYADSVKGRFTISRDNSKNTLYLQMNSLRAEDTAVYYCARHYYYDSSDAFDIWGQGTLVTISS
VL: B1 VL with S9F, S28N, K30L, S31T, S50G, S53T, L55R, T93R, R96L
B7: CD40L-182 (antibody, V domains shown)
VH: EVQLLESGGGLVQPGGSLRLSCAASGGYNFRDYMHWVRQAPGKGLEWVSYISSSGSSTYYADSVKGRFTISRDNSKNTLYLQMNSLRAEDTAVYYCAKNLGQGFDYWGQGTLVTVSS
VL: DIQMTQSPSSLSASVGDRVTITCSGDNLGDKYVHWYQQKPGKAPKLLIYGKKNRPSGVPSRFSGSGSGTDFTLTISSLQPEDFATYYCQAWDRTVVFGQGTKVEIK
B8: CD40L-141 (VHH)
VHH: EVQLVESGGGLVQPGGSLRLSCAASGGTLDDYAMGWFRQAPGKEREFLASVSWGFGSTYYADSVKGRFTISADNSKNTAYLQMNSLKPEDTAVYYCAKDGGSYGMDVWGQGTLVTVSS
B9: CD40L-154 (VHH)
VHH: EVQLVESGGGLVQPGGSLRLSCAASGRTSRSYEMGWFRQAPGKEREFVAAIDWDGSRTQYADSVKGRFTISADNSKNTAYLQMNSLKPEDTAVYYCAVPRETGWDGDWGQGTLVTVSS

Molecular target: CD40L (UniProt P29965)
Assay: flow cytometry, 100 nM IgG, CD40L over-expressing Expi293 cells over parent Expi293 cells

CD40L, sequence (P29965 whole entry): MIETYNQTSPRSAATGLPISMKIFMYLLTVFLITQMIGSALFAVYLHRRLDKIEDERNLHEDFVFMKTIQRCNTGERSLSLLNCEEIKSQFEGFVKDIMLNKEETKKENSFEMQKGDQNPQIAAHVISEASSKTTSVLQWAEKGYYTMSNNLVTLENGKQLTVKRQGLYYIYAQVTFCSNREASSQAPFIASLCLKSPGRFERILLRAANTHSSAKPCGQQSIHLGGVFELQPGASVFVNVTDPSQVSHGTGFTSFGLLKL

Row | 100 nM FACS (MFI Ratio) | Binder
1 | 1.9 MFI ratio | B1
2 | 1.7 MFI ratio | B2
3 | 1.9 MFI ratio | B3
4 | 2 MFI ratio | B4
5 | 1.8 MFI ratio | B5
6 | 1.8 MFI ratio | B6

Molecular target: CD40L over-expressed on Expi293 cells (UniProt P29965)
Assay: flow cytometry, 100 nM antibody, CD40L-Expi293 vs parent Expi293 cells

CD40L over-expressed on Expi293 cells, sequence (P29965 whole entry): as above

Row | 100 nM FACS (MFI Ratio) | Binder
7 | 1.8 | B7
8 | 2 | B8
9 | 1.9 | B9

Reference: US20230265179A1
